Source: patent US20230192860A1 (Bristol-Myers Squibb, published 2023)

How the values were obtained:
[1] = target: T1, hVISTA-ECD 6-His tag (human, UniProt Q9H7M9 33-193); test: SPR 37 C, Ab on Protein A, pH 6.0
T1 construct: also called monovalent hVISTA-ECD; human VISTA

[2] = target: T1, hVISTA-ECD 6-His tag; test: SPR 37 C, Ab on Protein A, pH 7.4

T1 sequence (Q9H7M9 other isoform, or with tags, fused parts or gaps limits assumed): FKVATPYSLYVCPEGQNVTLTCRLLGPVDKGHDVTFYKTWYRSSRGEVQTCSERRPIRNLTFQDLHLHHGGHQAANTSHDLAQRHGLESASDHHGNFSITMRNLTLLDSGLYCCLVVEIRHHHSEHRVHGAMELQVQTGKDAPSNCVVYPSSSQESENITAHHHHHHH

Binder | Kd [1] [µM] | koff [1] [s⁻¹] | kon [1] [M⁻¹ s⁻¹] | Kd [2] [µM] | koff [2] [s⁻¹] | kon [2] [M⁻¹ s⁻¹]
P1-077849 (P1-068744 E59Y E100S) (antibody, V domains shown) VH: QVQLVESGGGVVQPGRSLRLSCAASGFTFSEYAMHWVRQAPGKGLEWVAHIWYDGSNKYYADSVKGRFTISRDNSKNTLYLQMNSLRAEDTAVYYCARDSGFYSSYYFDEWGQGTLVTVSS VL: EIVLTQSPATLSLSPGERATLSCRASQSVSSSYLAWYQQKPGQAPRLLIYDASNRATGIPARFSGSGSGTDFTLTISSLEPEDFATYYCQQYNSYPYTFGQGTKLEIK | 0.22 | 0.11 | 500000 | 6.6 | 0.35 | 53000
P1-077843 (P1-068744 E102Y) (antibody, V domains shown) VH: QVQLVESGGGVVQPGRSLRLSCAASGFTFSEYAMHWVRQAPGKGLEWVAHIWYDGSNKYEADSVKGRFTISRDNSKNTLYLQMNSLRAEDTAVYYCARDSGFYESYYFDYWGQGTLVTVSS VL: EIVLTQSPATLSLSPGERATLSCRASQSVSSSYLAWYQQKPGQAPRLLIYDASNRATGIPARFSGSGSGTDFTLTISSLEPEDFATYYCQQYNSYPYTFGQGTKLEIK | 0.033 | 0.0048 | 150000 | 2 | 0.034 | 18000
P1-077855 (P1-068744 E31S E59Y) (antibody, V domains shown) VH: QVQLVESGGGVVQPGRSLRLSCAASGFTFSSYAMHWVRQAPGKGLEWVAHIWYDGSNKYYADSVKGRFTISRDNSKNTLYLQMNSLRAEDTAVYYCARDSGFYESYYFDEWGQGTLVTVSS VL: EIVLTQSPATLSLSPGERATLSCRASQSVSSSYLAWYQQKPGQAPRLLIYDASNRATGIPARFSGSGSGTDFTLTISSLEPEDFATYYCQQYNSYPYTFGQGTKLEIK | 0.036 | 0.0077 | 210000 | 5.2 | 0.061 | 12000
P1-077845 (P1-068744 E31S H50I) (antibody, V domains shown) VH: QVQLVESGGGVVQPGRSLRLSCAASGFTFSSYAMHWVRQAPGKGLEWVAIIWYDGSNKYEADSVKGRFTISRDNSKNTLYLQMNSLRAEDTAVYYCARDSGFYESYYFDEWGQGTLVTVSS VL: EIVLTQSPATLSLSPGERATLSCRASQSVSSSYLAWYQQKPGQAPRLLIYDASNRATGIPARFSGSGSGTDFTLTISSLEPEDFATYYCQQYNSYPYTFGQGTKLEIK | 0.0017 | 0.002 | 1.2e+06 | 0.014 | 0.0038 | 280000
P1-077853 (P1-068744 E31S E102Y) (antibody, V domains shown) VH: QVQLVESGGGVVQPGRSLRLSCAASGFTFSSYAMHWVRQAPGKGLEWVAHIWYDGSNKYEADSVKGRFTISRDNSKNTLYLQMNSLRAEDTAVYYCARDSGFYESYYFDYWGQGTLVTVSS VL: EIVLTQSPATLSLSPGERATLSCRASQSVSSSYLAWYQQKPGQAPRLLIYDASNRATGIPARFSGSGSGTDFTLTISSLEPEDFATYYCQQYNSYPYTFGQGTKLEIK | 0.018 | 0.0019 | 110000 | 1.2 | 0.024 | 21000

Continued, values first:

Kd [1] [µM] | koff [1] [s⁻¹] | kon [1] [M⁻¹ s⁻¹] | Kd [2] [µM] | koff [2] [s⁻¹] | kon [2] [M⁻¹ s⁻¹] | Binder
0.2 | 0.11 | 520000 | 0.91 | 0.3 | 330000 | P1-077841 (P1-068744 E100S) (antibody, V domains shown) VH: QVQLVESGGGVVQPGRSLRLSCAASGFTFSEYAMHWVRQAPGKGLEWVAHIWYDGSNKYEADSVKGRFTISRDNSKNTLYLQMNSLRAEDTAVYYCARDSGFYSSYYFDEWGQGTLVTVSS VL: EIVLTQSPATLSLSPGERATLSCRASQSVSSSYLAWYQQKPGQAPRLLIYDASNRATGIPARFSGSGSGTDFTLTISSLEPEDFATYYCQQYNSYPYTFGQGTKLEIK
0.22 | 0.085 | 380000 | 2.2 | 0.3 | 150000 | P1-077851 (P1-068744 E100S E102Y) (antibody, V domains shown) VH: QVQLVESGGGVVQPGRSLRLSCAASGFTFSEYAMHWVRQAPGKGLEWVAHIWYDGSNKYEADSVKGRFTISRDNSKNTLYLQMNSLRAEDTAVYYCARDSGFYSSYYFDYWGQGTLVTVSS VL: EIVLTQSPATLSLSPGERATLSCRASQSVSSSYLAWYQQKPGQAPRLLIYDASNRATGIPARFSGSGSGTDFTLTISSLEPEDFATYYCQQYNSYPYTFGQGTKLEIK
0.13 | 0.017 | 140000 | 1.1 | 0.055 | 63000 | P1-077863 (P1-068744 E59Y E102Y) (antibody, V domains shown) VH: QVQLVESGGGVVQPGRSLRLSCAASGFTFSEYAMHWVRQAPGKGLEWVAHIWYDGSNKYYADSVKGRFTISRDNSKNTLYLQMNSLRAEDTAVYYCARDSGFYESYYFDYWGQGTLVTVSS VL: EIVLTQSPATLSLSPGERATLSCRASQSVSSSYLAWYQQKPGQAPRLLIYDASNRATGIPARFSGSGSGTDFTLTISSLEPEDFATYYCQQYNSYPYTFGQGTKLEIK
0.0027 | 0.0032 | 1.2e+06 | 0.029 | 0.0035 | 120000 | P1-077847 (P1-068744 H50I E59Y) (antibody, V domains shown) VH: QVQLVESGGGVVQPGRSLRLSCAASGFTFSEYAMHWVRQAPGKGLEWVAIIWYDGSNKYYADSVKGRFTISRDNSKNTLYLQMNSLRAEDTAVYYCARDSGFYESYYFDEWGQGTLVTVSS VL: EIVLTQSPATLSLSPGERATLSCRASQSVSSSYLAWYQQKPGQAPRLLIYDASNRATGIPARFSGSGSGTDFTLTISSLEPEDFATYYCQQYNSYPYTFGQGTKLEIK
0.0026 | 0.0023 | 870000 | 0.026 | 0.0027 | 100000 | P1-077861 (P1-068744 H50I E102Y) (antibody, V domains shown) VH: QVQLVESGGGVVQPGRSLRLSCAASGFTFSEYAMHWVRQAPGKGLEWVAIIWYDGSNKYEADSVKGRFTISRDNSKNTLYLQMNSLRAEDTAVYYCARDSGFYESYYFDYWGQGTLVTVSS VL: EIVLTQSPATLSLSPGERATLSCRASQSVSSSYLAWYQQKPGQAPRLLIYDASNRATGIPARFSGSGSGTDFTLTISSLEPEDFATYYCQQYNSYPYTFGQGTKLEIK
0.12 | 0.097 | 820000 | 0.52 | 0.16 | 300000 | P1-077857 (P1-068744 E31S E100S) (antibody, V domains shown) VH: QVQLVESGGGVVQPGRSLRLSCAASGFTFSSYAMHWVRQAPGKGLEWVAHIWYDGSNKYEADSVKGRFTISRDNSKNTLYLQMNSLRAEDTAVYYCARDSGFYSSYYFDEWGQGTLVTVSS VL: EIVLTQSPATLSLSPGERATLSCRASQSVSSSYLAWYQQKPGQAPRLLIYDASNRATGIPARFSGSGSGTDFTLTISSLEPEDFATYYCQQYNSYPYTFGQGTKLEIK
0.0023 | 0.0032 | 1.4e+06 | 0.0095 | 0.0044 | 460000 | P1-077859 (P1-068744 H50I E100S) (antibody, V domains shown) VH: QVQLVESGGGVVQPGRSLRLSCAASGFTFSEYAMHWVRQAPGKGLEWVAIIWYDGSNKYEADSVKGRFTISRDNSKNTLYLQMNSLRAEDTAVYYCARDSGFYSSYYFDEWGQGTLVTVSS VL: EIVLTQSPATLSLSPGERATLSCRASQSVSSSYLAWYQQKPGQAPRLLIYDASNRATGIPARFSGSGSGTDFTLTISSLEPEDFATYYCQQYNSYPYTFGQGTKLEIK
